According to paper doi:10.1101/2020.12.10.419556:

Tests used:
Assay in all cases: loss of red fluorescence after photoconversion
[1] = target: PhoCl1.5f-MVL empty barrel fragment (residues 1-231)
[2] = target: PhoCl2f empty barrel fragment (residues 1-231)
[3] = target: PhoCl1 empty barrel fragment (residues 1-231), from pBAD/HisB constructs

PhoCl C-terminal peptide fragment (residues 232-242), from pBAD/HisB PhoCl variants
red fluorescence remaining after dissociation [1]: 60%
dissociation t1/2 [2]: 1.27 min
dissociation t1/2 [3]: 9.5 min
